We go through four molecules from patent publication US20100216715A1 (Novo Nordisk, published 2010).

Sequences and labels used below:
T1: human beta-Klotho (human, UniProt Q86Z14 1-1044)
T1 sequence (looked up): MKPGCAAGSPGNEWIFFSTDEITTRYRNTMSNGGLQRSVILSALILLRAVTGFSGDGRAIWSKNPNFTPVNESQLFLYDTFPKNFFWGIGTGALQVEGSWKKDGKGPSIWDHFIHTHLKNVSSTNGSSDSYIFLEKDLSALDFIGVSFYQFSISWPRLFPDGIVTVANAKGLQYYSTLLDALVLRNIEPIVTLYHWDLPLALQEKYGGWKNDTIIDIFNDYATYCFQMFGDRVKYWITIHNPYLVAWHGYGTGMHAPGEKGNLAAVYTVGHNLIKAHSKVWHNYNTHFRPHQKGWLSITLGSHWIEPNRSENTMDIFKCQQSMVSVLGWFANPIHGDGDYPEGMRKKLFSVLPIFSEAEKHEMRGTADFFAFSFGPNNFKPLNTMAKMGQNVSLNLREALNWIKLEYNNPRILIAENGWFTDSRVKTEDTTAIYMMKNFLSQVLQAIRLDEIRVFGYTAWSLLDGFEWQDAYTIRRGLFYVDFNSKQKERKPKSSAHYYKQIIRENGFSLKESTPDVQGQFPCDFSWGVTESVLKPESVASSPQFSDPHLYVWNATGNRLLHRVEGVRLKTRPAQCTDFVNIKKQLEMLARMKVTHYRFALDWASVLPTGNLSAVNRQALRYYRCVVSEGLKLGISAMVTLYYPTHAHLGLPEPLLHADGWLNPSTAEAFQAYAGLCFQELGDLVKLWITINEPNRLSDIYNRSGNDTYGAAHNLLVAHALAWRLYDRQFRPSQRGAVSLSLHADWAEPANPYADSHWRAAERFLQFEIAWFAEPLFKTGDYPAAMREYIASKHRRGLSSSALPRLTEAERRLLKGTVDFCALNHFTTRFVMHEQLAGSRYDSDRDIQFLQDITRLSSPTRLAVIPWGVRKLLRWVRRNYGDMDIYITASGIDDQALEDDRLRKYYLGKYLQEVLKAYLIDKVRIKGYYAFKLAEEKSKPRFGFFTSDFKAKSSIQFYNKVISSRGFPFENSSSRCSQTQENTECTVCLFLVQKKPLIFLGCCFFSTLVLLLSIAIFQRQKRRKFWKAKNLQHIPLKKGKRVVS

B1: (K56R, K59R, K69R, K122R) FGF21 (ligand)
chain: HPIPDSSPLLQFGGQVRQRYLYTDDAQQTEAHLEIREDGTVGGAADQSPESLLQLRALRPGVIQILGVRTSRFLCQRPDGALYGSLHFDPEACSFRELLLEDGYNVYQSEAHGLPLHLPGNRSPHRDPAPRGPARFLPLPGLPPALPEPPGILAPQPPDVGSSDPLSMVGPSQGRSPSYAS
B2: Gly-FGF21 (ligand)
chain: GHPIPDSSPLLQFGGQVRQRYLYTDDAQQTEAHLEIREDGTVGGAADQSPESLLQLKALKPGVIQILGVKTSRFLCQRPDGALYGSLHFDPEACSFRELLLEDGYNVYQSEAHGLPLHLPGNKSPHRDPAPRGPARFLPLPGLPPALPEPPGILAPQPPDVGSSDPLSMVGPSQGRSPSYAS
B3: (Q15F, K56R, K59R, K69R, D102T, N121Q, K122R, Y179F, A180E, S181R) Gly-FGF21 (ligand)
chain: GHPIPDSSPLLQFGGFVRQRYLYTDDAQQTEAHLEIREDGTVGGAADQSPESLLQLRALRPGVIQILGVRTSRFLCQRPDGALYGSLHFDPEACSFRELLLETGYNVYQSEAHGLPLHLPGQRSPHRDPAPRGPARFLPLPGLPPALPEPPGILAPQPPDVGSSDPLSMVGPSQGRSPSFER
B4: Gly-FGF21-M168L (ligand)
chain: GHPIPDSSPLLQFGGQVRQRYLYTDDAQQTEAHLEIREDGTVGGAADQSPESLLQLKALKPGVIQILGVKTSRFLCQRPDGALYGSLHFDPEACSFRELLLEDGYNVYQSEAHGLPLHLPGNKSPHRDPAPRGPARFLPLPGLPPALPEPPGILAPQPPDVGSSDPLSLVGPSQGRSPSYAS

The experiment addresses T1, human beta-Klotho. Briefly: cell-based or functional assay.
For the molecule B1, the “pERK-HEK293-Beta-klotho without HSA [EC50 (nM)] Median Value” (“pERK-HEK293-Beta-klotho without HSA” for short) was 12 nM.

Regarding B2, the “pERK-HEK293-Beta-klotho without HSA” value amounted to 2.1 nM.

Take B3: the “pERK-HEK293-Beta-klotho without HSA” value came out at 75 nM.

Consider B4, for which the “pERK-HEK293-Beta-klotho without HSA” value was 1.8 nM.
